In paper doi:10.64898/2025.12.16.694593 (bioRxiv, 2025):

T1: Mtb Ku (from Ku-HIS, TEV-cleaved) (Mycobacterium tuberculosis, UniProt A5U0X7 1-273)
T1 sequence: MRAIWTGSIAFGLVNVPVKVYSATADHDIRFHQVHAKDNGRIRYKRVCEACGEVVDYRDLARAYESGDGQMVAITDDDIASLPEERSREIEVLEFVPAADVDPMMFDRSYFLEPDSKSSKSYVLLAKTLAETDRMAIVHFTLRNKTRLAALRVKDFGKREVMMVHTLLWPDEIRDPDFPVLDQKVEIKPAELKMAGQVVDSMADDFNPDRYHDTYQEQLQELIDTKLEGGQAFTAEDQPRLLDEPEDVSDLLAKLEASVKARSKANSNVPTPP

T2: Mtb Ku released from RFP-Ku by TEV (Mycobacterium tuberculosis, UniProt A5U0X7 1-273)
T2 sequence: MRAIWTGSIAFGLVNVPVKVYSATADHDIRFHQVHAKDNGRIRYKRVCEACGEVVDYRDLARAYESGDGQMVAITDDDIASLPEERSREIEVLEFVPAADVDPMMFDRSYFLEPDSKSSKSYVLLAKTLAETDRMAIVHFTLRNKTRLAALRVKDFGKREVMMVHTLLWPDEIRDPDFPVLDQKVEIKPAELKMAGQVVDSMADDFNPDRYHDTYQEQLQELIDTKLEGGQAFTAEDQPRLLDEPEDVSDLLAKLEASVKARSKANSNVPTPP

B1: 50 bp blunt end (dsDNA)
DNA 1: GCTAAGTCATCGTCTGTCGATCGATCTCTCGAGTAGTACAGGTCTAGAGG
DNA 2: CCTCTAGACCTGTACTACTCGAGAGATCGATCGACAGACGATGACTTAGC
B2: 32/20dT DNA (called 30 bp/20 dT in legends) (dsDNA)
DNA 1: GCCCTGCTGCCGACCAACGATGGTTACATTCC
DNA 2: GGAATGTAACCATCGTTGGTCGGCAGCAGGGCTTTTTTTTTTTTTTTTTTTT

How the values were obtained:
[1] = biological target: T1, Mtb Ku (from Ku-HIS, TEV-cleaved); assay: EMSA
[2] = biological target: T2, Mtb Ku released from RFP-Ku by TEV; assay: EMSA

| Binder | binding result [1] | binding result [2] |
| --- | --- | --- |
| B1 | binds | – |
| B2 | binds | binds |
